# T1: glycoprotein hormone beta 5 (GPHB5) (human, UniProt Q86YW7 25-130, one N-linked glycosylation (position not given))
# T1 construct: Secreted from the CHO 180 cell line co-expressing GPHA2 and GPHB5; also called beta subunit of CGH
# T1 sequence: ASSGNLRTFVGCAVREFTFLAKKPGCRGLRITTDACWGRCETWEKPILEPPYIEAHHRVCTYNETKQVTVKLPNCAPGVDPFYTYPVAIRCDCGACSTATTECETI
# B1: glycoprotein hormone alpha2 (GPHA2) (ligand)
# chain: QEAVIPGCHLHPFNVTVRSDRQGTCQGSHVAQACVGHCESSAFPSRYSVLVASGYRHNITSVSQCCTISGLKKVKVQLQCVGSRREELEIFTARACQCDMCRLSRY
# modifications: two N-linked glycosylations (positions not given)
# notes: Secreted from the CHO 180 cell line co-expressing GPHA2 and GPHB5; also called Zsig51; alpha subunit of CGH
# Target: T1, glycoprotein hormone beta 5 (GPHB5)
# Assay: co-expression in CHO cells; secreted heterodimer
binder,measurement,value
B1,binding result,binds
